Target: biotin-labelled M3C phenomycin (Streptomyces fervens MA 564-Cl)
Assay: BLI

Substance: human 80S ribosome (complex)
- Kd: 0.023 nM

From doi:10.1101/847772
